Measured values taken from PMC10269738.

How the values were obtained:
[1] = molecular target: cell-surface annexin A2 of Vero cells (African green monkey (endogenous in Vero))
[2] = molecular target: adhesion G protein-coupled receptor Latrophilin-2 of Vero cells (African green monkey (endogenous in Vero))

avian reovirus (ARV) σC protein, strain S1133 (natural protein)
virus titer in Vero cells treated with anti-AnxA2 monoclonal antibody, against untreated samples (log units lower) [1]: 2.5
virus titer in Vero cells treated with anti-ADGRL2 monoclonal antibody, against untreated samples (log units lower) [2]: 3
